Test results reported in the Immune Epitope Database (IEDB).

Columns and labels:
Assay in all cases: IEDB peptide-MHC binding, purified MHC/competitive/radioactivity; filed as Kd, often an IC50 or EC50 that approximates it; ≥ and ≤ were set here for values at or beyond the usual limits of such assays
HLA-A*01:01 = biological target: HLA-A*01:01
HLA-A*30:02 = biological target: HLA-A*30:02
HLA-A*23:01 = biological target: HLA-A*23:01
HLA-A*26:01 = biological target: HLA-A*26:01
HLA-A*24:02 = biological target: HLA-A*24:02
HLA-A*29:02 = biological target: HLA-A*29:02
HLA-B*35:01 = biological target: HLA-B*35:01
HLA-B*40:01 = conditions: source organism: Dengue virus 2 Jamaica/1409/1983
HLA-B*15:01 = conditions: source organism: Vaccinia virus Copenhagen
[1] = source organism: SARS coronavirus Tor2
[2] = source organism: Mammarenavirus brazilense
[3] = source organism: Lymphocytic choriomeningitis virus (strain Armstrong)
[4] = source organism: Mammarenavirus whitewaterense
[5] = source organism: Dengue virus 2 Jamaica/1409/1983

TLDESFLGRY
Kd (HLA-A*01:01; [1]): 0.00566 µM
Kd (HLA-A*30:02; [1]): 0.00832 µM
Kd (HLA-A*23:01; [1]): ≥ 70 µM
Kd (HLA-A*26:01; [1]): 0.132 µM
Kd (HLA-A*24:02; [1]): ≥ 70.3 µM
Kd (HLA-A*29:02; [1]): 0.155 µM

VATTFITPM
Kd (HLA-B*35:01; source organism: Dengue virus 2 Peru/IQT2913/1996): 0.146 µM

VDICFWSTL
Kd (HLA-A*01:01; [2]): 12 µM
Kd (HLA-A*30:02; [2]): 9.76 µM
Kd (HLA-A*23:01; [2]): 7.57 µM
Kd (HLA-A*26:01; [2]): ≥ 77.9 µM
Kd (HLA-A*24:02; [2]): 5.63 µM
Kd (HLA-A*29:02; [2]): ≥ 78.9 µM

VEDSRFWEL
Kd (HLA-B*40:01): 4.28 µM

VFFGYFASHF
Kd (HLA-A*01:01; [1]): 12.9 µM
Kd (HLA-A*30:02; [1]): 2.82 µM
Kd (HLA-A*23:01; [1]): 0.000595 µM
Kd (HLA-A*26:01; [1]): 4.13 µM
Kd (HLA-A*24:02; [1]): 0.00463 µM
Kd (HLA-A*29:02; [1]): 0.000261 µM

VLYSYILFL
Kd (HLA-B*15:01): 0.559 µM

WCSQTSYQYL
Kd (HLA-A*01:01; [3]): 1.04 µM
Kd (HLA-A*30:02; [3]): ≥ 29.6 µM
Kd (HLA-A*23:01; [3]): 8.29 µM
Kd (HLA-A*26:01; [3]): ≥ 69.7 µM
Kd (HLA-A*24:02; [3]): 15.9 µM
Kd (HLA-A*29:02; [3]): 19 µM

WDIKDPSLL
Kd (HLA-A*01:01; [4]): ≥ 42.3 µM
Kd (HLA-A*30:02; [4]): ≥ 34.8 µM
Kd (HLA-A*23:01; [4]): ≥ 77.7 µM
Kd (HLA-A*26:01; [4]): ≥ 77.9 µM
Kd (HLA-A*24:02; [4]): ≥ 77.5 µM
Kd (HLA-A*29:02; [4]): ≥ 27.6 µM

WHYDQDHPY
Kd (HLA-A*30:02; [5]): ≥ 39.3 µM
Kd (HLA-B*35:01; [5]): 7.59 µM
